Test results taken from patent US20260144882A1 (BIO THERA SOLUTIONS, published 2026).
Values joined by “and” are separate entries in the source; they are usually repeats but may differ in a detail not shown here. Identical values can stand only once. Like-named read-outs stand apart in the source and are kept apart here.

What was measured:
[1] = molecular target: T1, human Nectin-4 extracellular antigen hNectin-4-His (human, UniProt Q96NY8 32-349); assay: ELISA, coated hNectin-4-His
T1 construct: C-terminal 8xHis tag included
T1 sequence: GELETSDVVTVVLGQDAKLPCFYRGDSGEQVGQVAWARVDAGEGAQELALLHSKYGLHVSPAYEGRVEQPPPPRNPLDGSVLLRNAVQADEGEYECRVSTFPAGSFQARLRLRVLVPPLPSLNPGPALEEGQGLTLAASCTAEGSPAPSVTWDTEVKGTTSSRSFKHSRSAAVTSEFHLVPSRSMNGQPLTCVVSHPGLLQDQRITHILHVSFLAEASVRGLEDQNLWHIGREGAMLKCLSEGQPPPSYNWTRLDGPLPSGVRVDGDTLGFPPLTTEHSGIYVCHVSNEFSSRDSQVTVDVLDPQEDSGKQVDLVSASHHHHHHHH
Source text: (§1) The binding activity of the antibodies was detected by ELISA.

[2] = molecular target: T2, human Nectin-4, full length on cells (human, UniProt Q96NY8 32-510); assay: flow cytometry, T-47D cells, antibody bound on ice, 0 h at 37 C
T2 construct: whole, on cells; T-47D cells positive for Nectin-4 expression; also called Nectin-4 on T-47D cells; CHO-Nectin-4
T2 sequence (looked up): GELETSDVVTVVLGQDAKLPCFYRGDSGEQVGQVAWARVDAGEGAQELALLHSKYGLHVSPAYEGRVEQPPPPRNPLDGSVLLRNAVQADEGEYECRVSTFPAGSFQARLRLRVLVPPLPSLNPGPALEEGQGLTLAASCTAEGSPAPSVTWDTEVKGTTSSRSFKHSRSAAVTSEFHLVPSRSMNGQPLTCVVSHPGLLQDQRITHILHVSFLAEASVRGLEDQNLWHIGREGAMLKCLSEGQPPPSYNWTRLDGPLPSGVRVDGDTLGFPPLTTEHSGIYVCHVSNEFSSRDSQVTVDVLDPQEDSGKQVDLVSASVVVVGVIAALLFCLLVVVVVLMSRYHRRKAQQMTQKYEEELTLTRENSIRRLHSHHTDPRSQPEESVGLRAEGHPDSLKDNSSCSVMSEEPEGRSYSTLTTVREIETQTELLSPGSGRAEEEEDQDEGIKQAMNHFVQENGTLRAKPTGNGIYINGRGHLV
Procedure: (§2) In this assay, the relative amount of antibodies remaining on the cell surface after co-incubation at 37° C. for a certain period of time was detected by FACS to reflect the endocytosis efficiency. The procedures are briefly described as follows: T-47D cells (human ductal breast cancer cells, derived from the Cell Bank of Chinese Academy of Sciences, Cat.No. TCHu 87); the antibodies of interest were adjusted to 10 µg/mL and co-incubated with the cells on ice for 1 h; the cells were washed 3 times with pre-cooled PBS, and then placed at 37° C. and incubated for 0 h, 2 h and 4 h; 0.2% N₃Na was added to stop the endocytosis reaction; the cells were washed with PBS thrice, followed by the addition of the PE-labeled anti-human Fc secondary antibody (Invitrogen 12-4998-82); the cells were incubated at 4° C. for 30 min; the red fluorescence signal was detected on a flow cytometer.

[3] = molecular target: T1, human Nectin-4 extracellular antigen …; assay: ELISA, coated antigen
[4] = molecular target: T3, mouse mNectin-4 protein (ACRO, NE4-M52H3) (mouse, UniProt Q8R007 31-347); assay: ELISA, coated antigen
T3 construct: bought; construct not described; also called mouse Nectin-4
T3 sequence (looked up): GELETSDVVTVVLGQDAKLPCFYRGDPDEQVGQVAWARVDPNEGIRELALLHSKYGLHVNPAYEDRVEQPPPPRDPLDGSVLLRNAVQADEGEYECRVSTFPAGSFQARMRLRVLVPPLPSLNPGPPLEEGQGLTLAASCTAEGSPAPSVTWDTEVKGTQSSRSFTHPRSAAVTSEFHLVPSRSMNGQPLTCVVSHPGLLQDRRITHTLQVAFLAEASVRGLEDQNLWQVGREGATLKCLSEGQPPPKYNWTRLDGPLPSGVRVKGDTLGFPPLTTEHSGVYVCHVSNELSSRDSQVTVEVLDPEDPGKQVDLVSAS

[5] = molecular target: T4, monkey cNectin-4 protein (ACRO, NE4-C52H4) (cynomolgus monkey, UniProt A0A2K5WES1 32-349); assay: ELISA, coated antigen
T4 construct: bought; construct not described; also called cynomolgus monkey Nectin-4
T4 sequence: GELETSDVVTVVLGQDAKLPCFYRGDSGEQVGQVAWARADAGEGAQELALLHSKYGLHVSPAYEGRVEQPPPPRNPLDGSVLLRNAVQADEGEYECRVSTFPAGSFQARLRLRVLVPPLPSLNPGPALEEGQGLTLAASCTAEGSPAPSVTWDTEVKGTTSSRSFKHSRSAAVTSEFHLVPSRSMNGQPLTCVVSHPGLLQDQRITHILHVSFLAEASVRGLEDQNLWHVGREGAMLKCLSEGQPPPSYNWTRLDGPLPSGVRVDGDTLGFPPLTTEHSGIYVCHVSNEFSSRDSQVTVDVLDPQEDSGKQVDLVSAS

[6] = molecular target: T1, human Nectin-4 extracellular antigen …; assay: SPR, antibody on Protein A chip, hNectin-4-His analyte, 1:1 fit
Source text: (§3) In this study, the affinity of the antibodies for the human Nectin-4 extracellular antigen was detected by surface plasmon resonance (SPR) technique (BIAcore: GE Healthcare, T200).

[7] = molecular target: T1, human Nectin-4 extracellular antigen …; assay: ELISA, coated hNectin-4-His; remark: listed apart in the source
Source text: as §1

[8] = molecular target: T2, human Nectin-4, full length on cells; assay: flow cytometry, T-47D cells, antibody bound on ice, 0 h at 37 C; remark: listed apart in the source
Procedure: as §2

[9] = molecular target: T2, human Nectin-4, full length on cells; assay: flow cytometry on T-47D cells
Procedure: In this study, the binding activity of different antibodies to T-47D cells positive for Nectin-4 expression was detected by FACS, and the EC₅₀ for the binding of antibodies to the cells was analyzed by a four-parameter method. The procedures are briefly described as follows: T-47D cells (the Cell Bank of Chinese Academy of Sciences, TCHu 87) were trypsinized; the antibodies were serially diluted and co-incubated with T-47D cells at 4° C. for 0.5-1 h, followed by the addition of the secondary PE-labeled anti-human Fc antibody (Invitrogen, 12-4998-82); the signal intensity of red fluorescence was detected on a flow cytometer, and curves were plotted using Graphpad Prism and the EC₅₀ was calculated.

[10] = molecular target: T1, human Nectin-4 extracellular antigen …; assay: SPR (BIAcore T200): antibody captured on a Protein A chip, hNectin-4-His injected at 0-100 nM, 1:1 fit. The sheet prints no unit; M is taken from the column head of Table 12 for the same fits. Table 12 prints 6.03E-09 for ASG-22, so the sheet's number differs from the text.
Source text: as §3

[11] = molecular target: T1, human Nectin-4 extracellular antigen …; assay: ELISA, coated hNectin-4-His; remark: listed apart in the source
Source text: as §1

[12] = molecular target: T1, human Nectin-4 extracellular antigen …; assay: SPR, antibody on Protein A chip, 1:1 fit
Source text: as §3

[13] = molecular target: T1, human Nectin-4 extracellular antigen …; assay: ELISA, coated antigen; remark: listed apart in the source
Source text: as §1
In this assay, the binding of different antibodies to human Nectin-4 homologous proteins hNectin-1 (ACRO, PV1-H5223), hNectin-2 (ACRO, PV2-H52E2), hNectin-3 (ACRO, PV3-H52E4), and hNectin-4-His was detected by ELISA to determine the specificity of the antibodies. For the methodology and procedures, see Example 4. Antigens of interest ([…]) were immobilized; after blocking, serially diluted antibodies (2-fold serially diluted from […]) were added, and HRP-labeled anti-human-Kappa secondary antibody was added for chromogenic reaction.

B1: reference antibody ASG-22 (antibody, human IgG1, kappa, V domains shown)
VH: EVQLVESGGGLVQPGGSLRLSCAASGFTFSSYNMNWVRQAPGKGLEWVSYISSSSSTIYYADSVKGRFTISRDNAKNSLSLQMNSLRDEDTAVYYCARAYYYGMDVWGQGTLVTVSS
VL: DIQMTQSPSSVSASVGDRVTITCRASQGISGWLAWYQQKPGKAPKFLIYAASTLQSGVPSRFSGSGSGTDFTLTISSLQPEDFATYYCQQANSFPPTFGGGTKVEIKR
EC50 [1]: 0.042 µg/mL and 0.046 µg/mL
MFI (mean fluorescence intensity) 0 h [2]: 58600 MFI
EC50 [3]: 0.035 µg/mL
EC50 [4]: 1.23 µg/mL
EC50 [5]: 0.033 µg/mL
Kd [6]: 6.03 nM
koff [6]: 0.00436 s⁻¹
kon [6]: 723000 M⁻¹ s⁻¹
EC50 [7]: 0.019 µg/mL
MFI (mean fluorescence intensity) 0 h [8]: 107000 MFI
EC50 [9]: 0.118 µg/mL and 0.788 nM
Kd [10]: 6.68 nM
EC50 [11]: 0.042 µg/mL
Kd [12]: 10.1 nM and 10.9 nM
koff [12]: 0.00581 s⁻¹ and 0.0059 s⁻¹
kon [12]: 577000 M⁻¹ s⁻¹ and 540000 M⁻¹ s⁻¹

B2: antibody 3A10 (antibody, human IgG1, kappa, V domains shown)
VH: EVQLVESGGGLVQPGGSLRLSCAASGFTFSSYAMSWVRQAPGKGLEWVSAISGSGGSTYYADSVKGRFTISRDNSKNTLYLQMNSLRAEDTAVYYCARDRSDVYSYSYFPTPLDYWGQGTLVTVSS
VL: DIQMTQSPSSLSASVGDRVTITCRASQGISSYLAWYQQKPGKAPKLLIYAASSLQSGVPSRFSGSGSGTDFTLTISSLQPEDFATYYCQQHYTTPPTFGQGTKVEIKR
EC50 [13]: 0.062 µg/mL
EC50 [3]: 0.037 µg/mL
EC50 [4]: 0.037 µg/mL
EC50 [5]: 0.042 µg/mL
Kd [6]: 2.1 nM
koff [6]: 0.000867 s⁻¹
kon [6]: 413000 M⁻¹ s⁻¹
MFI (mean fluorescence intensity) 0 h [8]: 105000 MFI
EC50 [9]: 0.186 µg/mL and 1.24 nM
EC50 [11]: 0.068 µg/mL
